The target of this assay is extracellular matrix (BD Matrigel). Kind of assay: ECL on Matrigel-coated plate, relative to MRAH-G1d/MRAL-k0.

B1: TR01H082-E2702GsKsc/GCH094-E2704sEpsc/L0201-k0 (bispecific antibody, human IgG4 S228P, kappa, N297A)
heavy 1: QVQLVESGGGLVQPGRSLRLSCAASGFTFSNAWMHWVRQAPGKGLEWVAQIKDKSQNYATYYAESVKGRFTISRDDSKNSLYLQMNSLKTEDTAVYYCRYVHYAAGYGVDAWGQGTTVTVSSASTKGPSVFPLAPCSRSTSESTAALGCLVKDYFPEPVTVSWNSGALTSGVHTFPAVLQSSGLYSLSSVVTVPSSSLGTKTYTCNVDHKPSNTKVDKRVESKYGPPCPPCPAPEFRGGPKVFLFPPKPKDTLMISRTPEVTCVVVDVSQEDPEVQFNWYVDGVEVHNAKTKPREEQFASTYRVVSVLTVLHQDWLNGKEYKCKVSNKGLPSSIEKTISKAKGQPREPQVYTLPPSQKEMTKNQVSLTCLVKGFYPSDIAVEWESNGQPENNYKTTPPVLDSDGSFFLYSKLTVDKSRWQEGNVFSCSVMHEALHNRYTQKSLSLSP
heavy 2: QVQLVQSGAEVKKPGASVTVSCKASGYTFTDYEMHWVRQAPGEGLEWMGAIDGETPDTAYSEKFKGRVTLTADKSTSTAYMELSSLTSEDTAVYYCTRFYSYTYWGQGTLVTVSSASTKGPSVFPLAPCSRSTSESTAALGCLVKDYFPEPVTVSWNSGALTSGVHTFPAVLQSSGLYSLSSVVTVPSSSLGTQTYTCNVDHKPSNTKVDKRVESKYGPPCPPCPAPEFRGGPKVFLFPPKPKDTLMISRTPEVTCVVVDVSQEDPEVQFNWYVDGVEVHNAKTKPREEQFASTYRVVSVLTVLHQDWLNGKEYKCKVSNKGLPSSIEKTISKAKGQPREPQVYTLPPSQEEMTKNQVSLTCLVKGFYPSDIAVEWESNGQPENNYKTTPPVLDSDGSFFLYSKLTVDKSRWQEGNVFSCSVMHEALHNHYTQESLSLSP
light: DIVMTQSPLSLPVTPGEPASISCRSSQPPVHSNRNTYLHWYQQKPGQAPRLLIYKVSNRFSGVPDRFSGSGSGTDFTLKISRVEAEDVGVYYCGQGTQVPYTFGQGTKLEIKRTVAAPSVFIFPPSDEQLKSGTASVVCLLNNFYPREAKVQWKVDNALQSGNSQESVTEQDSKDSTYSLSSTLTLSKADYEKHKVYACEVTHQGLSSPVTKSFNRGEC
For B1, the ECM binding ratio (standard = 1) turned out to be 1.1.

B2: TR01H082-E2702GsKsc/GCH094-E2704sEpsc/L0011-k0 (bispecific antibody, human IgG4 S228P, kappa, N297A)
heavy 1: QVQLVESGGGLVQPGRSLRLSCAASGFTFSNAWMHWVRQAPGKGLEWVAQIKDKSQNYATYYAESVKGRFTISRDDSKNSLYLQMNSLKTEDTAVYYCRYVHYAAGYGVDAWGQGTTVTVSSASTKGPSVFPLAPCSRSTSESTAALGCLVKDYFPEPVTVSWNSGALTSGVHTFPAVLQSSGLYSLSSVVTVPSSSLGTKTYTCNVDHKPSNTKVDKRVESKYGPPCPPCPAPEFRGGPKVFLFPPKPKDTLMISRTPEVTCVVVDVSQEDPEVQFNWYVDGVEVHNAKTKPREEQFASTYRVVSVLTVLHQDWLNGKEYKCKVSNKGLPSSIEKTISKAKGQPREPQVYTLPPSQKEMTKNQVSLTCLVKGFYPSDIAVEWESNGQPENNYKTTPPVLDSDGSFFLYSKLTVDKSRWQEGNVFSCSVMHEALHNRYTQKSLSLSP
heavy 2: QVQLVQSGAEVKKPGASVTVSCKASGYTFTDYEMHWVRQAPGEGLEWMGAIDGETPDTAYSEKFKGRVTLTADKSTSTAYMELSSLTSEDTAVYYCTRFYSYTYWGQGTLVTVSSASTKGPSVFPLAPCSRSTSESTAALGCLVKDYFPEPVTVSWNSGALTSGVHTFPAVLQSSGLYSLSSVVTVPSSSLGTQTYTCNVDHKPSNTKVDKRVESKYGPPCPPCPAPEFRGGPKVFLFPPKPKDTLMISRTPEVTCVVVDVSQEDPEVQFNWYVDGVEVHNAKTKPREEQFASTYRVVSVLTVLHQDWLNGKEYKCKVSNKGLPSSIEKTISKAKGQPREPQVYTLPPSQEEMTKNQVSLTCLVKGFYPSDIAVEWESNGQPENNYKTTPPVLDSDGSFFLYSKLTVDKSRWQEGNVFSCSVMHEALHNHYTQESLSLSP
light: DIVMTQSPLSLPVTPGEPASISCRSSQPLVHSNRNTYLHWYQQKPGQAPRLLIYKVSNRFSGVPDRFSGSGSGTDFTLKISRVEAEDVGVYYCGQGTQVPYTFGQGTKLEIKRTVAAPSVFIFPPSDEQLKSGTASVVCLLNNFYPREAKVQWKVDNALQSGNSQESVTEQDSKDSTYSLSSTLTLSKADYEKHKVYACEVTHQGLSSPVTKSFNRGEC
For B2, the ECM binding ratio (standard = 1) came to 0.7.

B3: TR01H040-E2702GsKsc/H0610-E2704sEpsc/L0203-k0 (bispecific antibody, human IgG4 S228P, kappa, N297A)
heavy 1: QVQLVESGGGLVQPGRSLRLSCAASGFTFSNAWMHWVRQAPGKGLEWVAQIKDKSQNYATYYAESVKGRFTISRADSKNSIYLQMNSLKTEDTAVYYCRYVHYSASYGVDAWGQGTTVTVSSASTKGPSVFPLAPCSRSTSESTAALGCLVKDYFPEPVTVSWNSGALTSGVHTFPAVLQSSGLYSLSSVVTVPSSSLGTKTYTCNVDHKPSNTKVDKRVESKYGPPCPPCPAPEFRGGPKVFLFPPKPKDTLMISRTPEVTCVVVDVSQEDPEVQFNWYVDGVEVHNAKTKPREEQFASTYRVVSVLTVLHQDWLNGKEYKCKVSNKGLPSSIEKTISKAKGQPREPQVYTLPPSQKEMTKNQVSLTCLVKGFYPSDIAVEWESNGQPENNYKTTPPVLDSDGSFFLYSKLTVDKSRWQEGNVFSCSVMHEALHNRYTQKSLSLSP
heavy 2: QVQLVQSGAEVKKPGASVKVSCKASGYTFTDYEMHWIRQPPGQGLEWIGAIDGKTPDTAYSQKFKGRVTLTADKSTSTAYMELSSLTSEDTAVYYCTRFYSYTYWGQGTLVTVSSASTKGPSVFPLAPCSRSTSESTAALGCLVKDYFPEPVTVSWNSGALTSGVHTFPAVLQSSGLYSLSSVVTVPSSSLGTQTYTCNVDHKPSNTKVDKRVESKYGPPCPPCPAPEFRGGPKVFLFPPKPKDTLMISRTPEVTCVVVDVSQEDPEVQFNWYVDGVEVHNAKTKPREEQFASTYRVVSVLTVLHQDWLNGKEYKCKVSNKGLPSSIEKTISKAKGQPREPQVYTLPPSQEEMTKNQVSLTCLVKGFYPSDIAVEWESNGQPENNYKTTPPVLDSDGSFFLYSKLTVDKSRWQEGNVFSCSVMHEALHNHYTQESLSLSP
light: DIVMTQSPLSLPVTPGEPASISCRSSQSPVHSNRNTYIHWYQQKPGQAPRLLIYKVSNRFSGVPDRFSGSGSGTDFTLKISRVEAEDVGVYYCGQGTQVPYTFGQGTKLEIKRTVAAPSVFIFPPSDEQLKSGTASVVCLLNNFYPREAKVQWKVDNALQSGNSQESVTEQDSKDSTYSLSSTLTLSKADYEKHKVYACEVTHQGLSSPVTKSFNRGEC
With B3, the ECM binding ratio (standard = 1) was determined as 0.8.

B4: TR01H040-E2702GsKsc/H0610-E2704sEpsc/L0201-k0 (bispecific antibody, human IgG4 S228P, kappa, N297A)
heavy 1: QVQLVESGGGLVQPGRSLRLSCAASGFTFSNAWMHWVRQAPGKGLEWVAQIKDKSQNYATYYAESVKGRFTISRADSKNSIYLQMNSLKTEDTAVYYCRYVHYSASYGVDAWGQGTTVTVSSASTKGPSVFPLAPCSRSTSESTAALGCLVKDYFPEPVTVSWNSGALTSGVHTFPAVLQSSGLYSLSSVVTVPSSSLGTKTYTCNVDHKPSNTKVDKRVESKYGPPCPPCPAPEFRGGPKVFLFPPKPKDTLMISRTPEVTCVVVDVSQEDPEVQFNWYVDGVEVHNAKTKPREEQFASTYRVVSVLTVLHQDWLNGKEYKCKVSNKGLPSSIEKTISKAKGQPREPQVYTLPPSQKEMTKNQVSLTCLVKGFYPSDIAVEWESNGQPENNYKTTPPVLDSDGSFFLYSKLTVDKSRWQEGNVFSCSVMHEALHNRYTQKSLSLSP
heavy 2: QVQLVQSGAEVKKPGASVKVSCKASGYTFTDYEMHWIRQPPGQGLEWIGAIDGKTPDTAYSQKFKGRVTLTADKSTSTAYMELSSLTSEDTAVYYCTRFYSYTYWGQGTLVTVSSASTKGPSVFPLAPCSRSTSESTAALGCLVKDYFPEPVTVSWNSGALTSGVHTFPAVLQSSGLYSLSSVVTVPSSSLGTQTYTCNVDHKPSNTKVDKRVESKYGPPCPPCPAPEFRGGPKVFLFPPKPKDTLMISRTPEVTCVVVDVSQEDPEVQFNWYVDGVEVHNAKTKPREEQFASTYRVVSVLTVLHQDWLNGKEYKCKVSNKGLPSSIEKTISKAKGQPREPQVYTLPPSQEEMTKNQVSLTCLVKGFYPSDIAVEWESNGQPENNYKTTPPVLDSDGSFFLYSKLTVDKSRWQEGNVFSCSVMHEALHNHYTQESLSLSP
light: DIVMTQSPLSLPVTPGEPASISCRSSQPPVHSNRNTYLHWYQQKPGQAPRLLIYKVSNRFSGVPDRFSGSGSGTDFTLKISRVEAEDVGVYYCGQGTQVPYTFGQGTKLEIKRTVAAPSVFIFPPSDEQLKSGTASVVCLLNNFYPREAKVQWKVDNALQSGNSQESVTEQDSKDSTYSLSSTLTLSKADYEKHKVYACEVTHQGLSSPVTKSFNRGEC
With B4, the ECM binding ratio (standard = 1) was determined as 0.8.

B5: TR01H040-E2702GsKsc/H0610-E2704sEpsc/L0000-k0 (bispecific antibody, human IgG4 S228P, kappa, N297A)
heavy 1: QVQLVESGGGLVQPGRSLRLSCAASGFTFSNAWMHWVRQAPGKGLEWVAQIKDKSQNYATYYAESVKGRFTISRADSKNSIYLQMNSLKTEDTAVYYCRYVHYSASYGVDAWGQGTTVTVSSASTKGPSVFPLAPCSRSTSESTAALGCLVKDYFPEPVTVSWNSGALTSGVHTFPAVLQSSGLYSLSSVVTVPSSSLGTKTYTCNVDHKPSNTKVDKRVESKYGPPCPPCPAPEFRGGPKVFLFPPKPKDTLMISRTPEVTCVVVDVSQEDPEVQFNWYVDGVEVHNAKTKPREEQFASTYRVVSVLTVLHQDWLNGKEYKCKVSNKGLPSSIEKTISKAKGQPREPQVYTLPPSQKEMTKNQVSLTCLVKGFYPSDIAVEWESNGQPENNYKTTPPVLDSDGSFFLYSKLTVDKSRWQEGNVFSCSVMHEALHNRYTQKSLSLSP
heavy 2: QVQLVQSGAEVKKPGASVKVSCKASGYTFTDYEMHWIRQPPGQGLEWIGAIDGKTPDTAYSQKFKGRVTLTADKSTSTAYMELSSLTSEDTAVYYCTRFYSYTYWGQGTLVTVSSASTKGPSVFPLAPCSRSTSESTAALGCLVKDYFPEPVTVSWNSGALTSGVHTFPAVLQSSGLYSLSSVVTVPSSSLGTQTYTCNVDHKPSNTKVDKRVESKYGPPCPPCPAPEFRGGPKVFLFPPKPKDTLMISRTPEVTCVVVDVSQEDPEVQFNWYVDGVEVHNAKTKPREEQFASTYRVVSVLTVLHQDWLNGKEYKCKVSNKGLPSSIEKTISKAKGQPREPQVYTLPPSQEEMTKNQVSLTCLVKGFYPSDIAVEWESNGQPENNYKTTPPVLDSDGSFFLYSKLTVDKSRWQEGNVFSCSVMHEALHNHYTQESLSLSP
light: DIVMTQSPLSLPVTPGEPASISCRSSQSLVHSNRNTYLHWYQQKPGQAPRLLIYKVSNRFSGVPDRFSGSGSGTDFTLKISRVEAEDVGVYYCGQGTQVPYTFGQGTKLEIKRTVAAPSVFIFPPSDEQLKSGTASVVCLLNNFYPREAKVQWKVDNALQSGNSQESVTEQDSKDSTYSLSSTLTLSKADYEKHKVYACEVTHQGLSSPVTKSFNRGEC
In the case of B5, the ECM binding ratio (standard = 1) was found to be 0.8.
